Laboratory results as given in patent publication US20030232420A1 (SEQUENOM, published 2003).
Where two headings read alike, the source gives them in different places. Ends that are not written are not given here.

B1: SEQ ID NO:67 peptide (peptide)
peptide: GNTDEAQEELAWKIAKMIVSDIMQQ
modifications: also: cellulose-bound
B2: SEQ ID NO:66 peptide (peptide)
peptide: QGNTDEAQEELAWKIAKMIVSDIMQQ
modifications: also: cellulose-bound
B3: SEQ ID NO:96 peptide (peptide)
peptide: VQGNTDEAQEELA
modifications: also: cellulose-bound
B4: SEQ ID NO:90 peptide (peptide)
peptide: VQGNTDEAQEELAWKIAKM
modifications: also: cellulose-bound
B5: SEQ ID NO:73 peptide (peptide)
peptide: QEELAWKIAKMIVSDIMQQ
modifications: also: cellulose-bound
B6: SEQ ID NO:88 peptide (peptide)
peptide: VQGNTDEAQEELAWKIAKMIV
modifications: also: cellulose-bound
B7: SEQ ID NO:76 peptide (peptide)
peptide: LAWKIAKMIVSDIMQQ
modifications: also: cellulose-bound
B8: SEQ ID NO:85 peptide (peptide)
peptide: VQGNTDEAQEELAWKIAKMIVSDI
modifications: also: cellulose-bound
B9: SEQ ID NO:89 peptide (peptide)
peptide: VQGNTDEAQEELAWKIAKMI
modifications: also: cellulose-bound
B10: SEQ ID NO:70 peptide (peptide)
peptide: DEAQEELAWKIAKMIVSDIMQQ
modifications: also: cellulose-bound
B11: SEQ ID NO:77 peptide (peptide)
peptide: AWKIAKMIVSDIMQQ
modifications: also: cellulose-bound
B12: SEQ ID NO:91 peptide (peptide)
peptide: VQGNTDEAQEELAWKIAK
modifications: also: cellulose-bound
B13: SEQ ID NO:72 peptide (peptide)
peptide: AQEELAWKIAKMIVSDIMQQ
modifications: also: cellulose-bound
B14: SEQ ID NO:111 peptide (. . . QEELAWKIAKMIWSDVMQQC), rhodamine-labeled (peptide)
peptide: VQGNTDEAQEELAWKIAKMIWSDVMQQC(tetramethylrhodamine‑5‑maleimide)-NH2
notes: also called single mutant V21W
B15: PV-37 (SEQ ID NO:104) FEELAWKIAKMIWSDVMQQC, rhodamine-labeled (peptide)
peptide: FEELAWKIAKMIWSDVMQQC(tetramethylrhodamine‑5‑maleimide)-NH2
B16: PV-47 (SEQ ID NO:105) QEEFAWKIAKMIVSDVFQQC, rhodamine-labeled (peptide)
peptide: QEEFAWKIAKMIVSDVFQQC(tetramethylrhodamine‑5‑maleimide)-NH2
B17: PV-48 (SEQ ID NO:106) QEEFAWKIAKMIISDVFQQC, rhodamine-labeled (peptide)
peptide: QEEFAWKIAKMIISDVFQQC(tetramethylrhodamine‑5‑maleimide)-NH2
B18: PV-49 (SEQ ID NO:107) FEELAWKIAKMIISDVFQQC, rhodamine-labeled (peptide)
peptide: FEELAWKIAKMIISDVFQQC(tetramethylrhodamine‑5‑maleimide)-NH2
B19: SEQ ID NO:71 peptide (peptide)
peptide: EAQEELAWKIAKMIVSDIMQQ
modifications: also: cellulose-bound
B20: SEQ ID NO:74 peptide (peptide)
peptide: EELAWKIAKMIVSDIMQQ
modifications: also: cellulose-bound
B21: SEQ ID NO:99 peptide (peptide)
peptide: VQGNTDEAQE
modifications: also: cellulose-bound
B22: SEQ ID NO:68 peptide (peptide)
peptide: NTDEAQEELAWKIAKMIVSDIMQQ
modifications: also: cellulose-bound
B23: SEQ ID NO:84 peptide (peptide)
peptide: VQGNTDEAQEELAWKIAKMIVSDIM
modifications: also: cellulose-bound
B24: SEQ ID NO:98 peptide (peptide)
peptide: VQGNTDEAQEE
modifications: also: cellulose-bound
B25: SEQ ID NO:94 peptide (peptide)
peptide: VQGNTDEAQEELAWK
modifications: also: cellulose-bound
B26: SEQ ID NO:92 peptide (peptide)
peptide: VQGNTDEAQEELAWKIA
modifications: also: cellulose-bound
B27: SEQ ID NO:75 peptide (peptide)
peptide: ELAWKIAKMIVSDIMQQ
modifications: also: cellulose-bound
B28: SEQ ID NO:69 peptide (peptide)
peptide: TDEAQEELAWKIAKMIVSDIMQQ
modifications: also: cellulose-bound
B29: SEQ ID NO:86 peptide (peptide)
peptide: VQGNTDEAQEELAWKIAKMIVSD
modifications: also: cellulose-bound
B30: SEQ ID NO:97 peptide (peptide)
peptide: VQGNTDEAQEEL
modifications: also: cellulose-bound
B31: SEQ ID NO:93 peptide (peptide)
peptide: VQGNTDEAQEELAWKI
modifications: also: cellulose-bound
B32: SEQ ID NO:112 peptide Ac-DLAWKIAKMIVSDVMQQC, rhodamine-labeled (peptide)
peptide: Ac-DLAWKIAKMIVSDVMQQC(tetramethylrhodamine‑5‑maleimide)-NH2
B33: SEQ ID NO:87 peptide (peptide)
peptide: VQGNTDEAQEELAWKIAKMIVS
modifications: also: cellulose-bound
B34: SEQ ID NO:83 peptide (peptide)
peptide: VQGNTDEAQEELAWKIAKMIVSDIMQ
modifications: also: cellulose-bound
B35: SEQ ID NO:95 peptide (peptide)
peptide: VQGNTDEAQEELAW
modifications: also: cellulose-bound

How the values were obtained:
GFP-RIα D/D [1] = biological target: T1, GFP-RIα D/D (bovine, UniProt P00514 1-109); assay: SPOT peptide array, anti-GFP detection
T1 construct: range 1-109; His tag cleaved with thrombin; also called dimerization/docking (D/D) domain of bovine RIα (residues 1-109) fused to GFP; not shown: green fluorescent protein (GFP)

GFP-RIIα D/D [2] = biological target: T2, GFP-RIIα D/D (mouse, UniProt P12367 1-46); assay: SPOT peptide array, anti-GFP detection
T2 construct: range 1-46; His tag cleaved with thrombin; also called GFP-RII D/D; D/D domain of mouse RIIα (residues 1-46) fused to GFP; not shown: green fluorescent protein (GFP)

GFP-RIα D/D [3] = biological target: T1, GFP-RIα D/D; assay: SPOT peptide array, anti-GFP detection; remark: listed apart in the source
Description: (§1) In addition, the minimal sequence required for regulatory subunit binding was also assessed using N- and C-terminal truncations of the 27-residue human D-AKAP2 sequence. N-terminal or C-terminal truncated peptides were synthesized using SPOT synthesis on cellulose membrane as described herein. Binding was evaluated by incubating each membrane with GFP-RIα D/D and GFP-RIIα D/D as indicated below. The dimerization/docking (D/D) domain of bovine RIα (residues 1-109) and mouse RIIα (residues 1-46), fused to green fluorescence protein (GFP) were subcloned into a pRSET expression vector (Invitrogen, Carlsbad, Calif.) downstream of a histidine tag. The proteins, GFP-RIα D/D and GFP-RIIα D/D were expressed in E. coli BL21 (DE3) and purified using Talon (Clontech, Palo Alto, Calif.) resin. The His tag was cleaved using thrombin and the protein further purified using an S75-Sephadex (16/60) gel filtration column (Pharmacia, Peapack, N.J.) in 50 mM MES pH 5.8, 50 mM NaCl, 2 mM EDTA, 2 mM EGTA, 2 mM DTT. The protein was stored at 4° C.
(§2) Bound protein was detected using a primary antibody against GFP and enzyme conjugated secondary antibody for amplification of signal. The membrane was then analyzed by chemiluminescence.

GFP-RIIα D/D [4] = biological target: T2, GFP-RIIα D/D; assay: SPOT peptide array, anti-GFP detection; remark: listed apart in the source
Description: as §1, §2

Full-length murine RIIα = biological target: T3, Full-length murine RIIα (murine, UniProt P12367 2-401); assay: fluorescence anisotropy, labeled peptide
T3 construct: mature; given as full-length
Description: (§3) Binding of each fluorescently labeled peptide to the regulatory subunits was monitored using fluorescence anisotropy. RIα and RIIα were serially diluted beginning at 1 μM and 0.1 μM, respectively, into 10 mM HEPES pH 7.4, 0.15 M NaCl, 3 mM EDTA, 0.005% Surfactant P20 (Biacore) containing either 10 nM or 1 nM of fluorescently labeled peptide for RIα and RIIα, respectively. The samples were equilibrated for at least 1 hour at room temperature and fluorescence anisotropy monitored using a Fluoromax-2 (Jobin Yvon Horiba, SPEX Division, Edison, N.J.) equipped with Glan-Thompson polarizers. The rhodamine-labeled peptide was excited at 541 nm (5-10 nm bandpass) and emission monitored at 575 nm (5-10 nm bandpass). The anisotropy was calculated directly with the Fluoromax software using the following equation: […]
(§4) Several additional truncated and substituted peptides were synthesized and their affinity to RIα and RIIα evaluated using fluorescence anisotropy (see Table 8). Binding was evaluated for both RIα and RIIα0 using fluorescence anisotropy as described herein. Substituted residues are in bold Table 8. Tryptophan at a position corresponding to residue 21 of SEQ ID NO:2 is important for discriminating against binding to the RIIα subunit.

Full-length bovine RIα = biological target: T4, Full-length bovine RIα (bovine, UniProt P00514 1-380); assay: fluorescence anisotropy, labeled peptide
T4 construct: mature; given as full-length
Description: as §3, §4

T4 sequence (P00514 whole entry): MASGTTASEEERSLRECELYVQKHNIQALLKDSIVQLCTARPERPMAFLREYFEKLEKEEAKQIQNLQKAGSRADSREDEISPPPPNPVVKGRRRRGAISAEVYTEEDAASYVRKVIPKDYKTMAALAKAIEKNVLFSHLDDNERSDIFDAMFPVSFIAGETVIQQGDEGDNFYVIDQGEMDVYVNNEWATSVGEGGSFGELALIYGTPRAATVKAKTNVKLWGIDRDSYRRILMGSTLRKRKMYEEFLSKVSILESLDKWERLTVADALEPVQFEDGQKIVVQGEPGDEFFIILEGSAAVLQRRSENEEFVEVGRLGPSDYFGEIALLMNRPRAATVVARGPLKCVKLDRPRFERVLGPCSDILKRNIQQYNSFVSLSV
T1 sequence (P00514 1-109): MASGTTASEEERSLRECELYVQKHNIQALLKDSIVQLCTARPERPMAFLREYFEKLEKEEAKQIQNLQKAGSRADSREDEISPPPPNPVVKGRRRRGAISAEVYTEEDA
T3 sequence (P12367 2-401): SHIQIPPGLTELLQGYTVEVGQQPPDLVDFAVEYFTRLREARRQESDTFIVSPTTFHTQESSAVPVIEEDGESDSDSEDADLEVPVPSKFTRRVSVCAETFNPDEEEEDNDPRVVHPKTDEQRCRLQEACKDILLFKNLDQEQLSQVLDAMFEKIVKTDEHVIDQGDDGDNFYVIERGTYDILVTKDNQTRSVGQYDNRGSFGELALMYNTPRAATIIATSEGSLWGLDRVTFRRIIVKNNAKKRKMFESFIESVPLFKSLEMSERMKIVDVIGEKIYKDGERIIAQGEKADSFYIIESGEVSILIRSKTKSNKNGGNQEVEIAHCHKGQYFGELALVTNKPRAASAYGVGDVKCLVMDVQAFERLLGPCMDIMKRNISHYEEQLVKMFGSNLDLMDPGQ
T2 sequence (P12367 1-46): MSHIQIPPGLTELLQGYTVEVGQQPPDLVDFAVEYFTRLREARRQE

Binder	binding result (GFP-RIIα D/D [2])	binding result (GFP-RIα D/D [3])	binding result (GFP-RIIα D/D [4])	further results
B1	binds	–	–	binding result (GFP-RIα D/D [1]): binds
B2	binds	–	–	binding result (GFP-RIα D/D [1]): binds
B3	–	no binding	no binding	–
B4	–	no binding	no binding	–
B5	binds	–	–	binding result (GFP-RIα D/D [1]): binds
B6	–	no binding	binds	–
B7	binds	–	–	–
B8	–	binds	binds	–
B9	–	no binding	no binding	–
B10	binds	–	–	binding result (GFP-RIα D/D [1]): binds
B11	binds	–	–	–
B12	–	no binding	no binding	–
B13	binds	–	–	binding result (GFP-RIα D/D [1]): binds
B14	–	–	–	Kd (Full-length murine RIIα): 83 nM; Kd (Full-length bovine RIα): 120 nM
B15	–	–	–	Kd (Full-length murine RIIα): 150 nM; Kd (Full-length bovine RIα): 19 nM
B16	–	–	–	Kd (Full-length murine RIIα): 89 nM; Kd (Full-length bovine RIα): 39 nM
B17	–	–	–	Kd (Full-length murine RIIα): 124 nM; Kd (Full-length bovine RIα): 12 nM
B18	–	–	–	Kd (Full-length murine RIIα): 2.5 nM; Kd (Full-length bovine RIα): 1.1 nM

Binder	binding result (GFP-RIIα D/D [2])	binding result (GFP-RIα D/D [3])	binding result (GFP-RIIα D/D [4])	further results
B19	binds	–	–	binding result (GFP-RIα D/D [1]): binds
B20	binds	–	–	binding result (GFP-RIα D/D [1]): binds
B21	–	no binding	no binding	–
B22	binds	–	–	binding result (GFP-RIα D/D [1]): binds
B23	–	binds	binds	–
B24	–	no binding	no binding	–
B25	–	no binding	no binding	–
B26	–	no binding	no binding	–
B27	binds	–	–	binding result (GFP-RIα D/D [1]): binds
B28	binds	–	–	binding result (GFP-RIα D/D [1]): binds
B29	–	no binding	binds	–
B30	–	no binding	no binding	–
B31	–	no binding	no binding	–
B32	–	–	–	Kd (Full-length murine RIIα): 107 nM; Kd (Full-length bovine RIα): 773 nM
B33	–	no binding	binds	–
B34	–	binds	binds	–
B35	–	no binding	no binding	–
